From the DeepSol protein solubility set

Test: soluble on expression in E. coli; label from the status in PepcDB or PDB records

Sequence | soluble on expression in E. coli
MSLYSKDGENYFIVDAHVALWDARRENQRNIHGKQFIDCFYDYHRNLSPASELWPYEDFLYQGGERLMKDLFTDGYVDHAIFQPAHLGAFYNTGFGQTEEAFALTRKHPGMLTYNHCFDPRFEEAGLKQLREDAARFGLKGVKLYTAEWKGDSRGYKLSDPWTYRYLDACRELGIKNIHVHKGPTIRPLDRDAFDVADVDAAASDFTDLNFVVEHCGLPRLEDFCWIATQEPNVHAGLAVAIPFMHTRPRYFAQIIGELLYWLDEDRIQFSSDYALWTPRWIVEQFVDFRIPDDMTGEYPQLTVAQKKKILGLNAAAMYDIEVPAEGHHHHHH | soluble
MSLYYLFAPQFHPSKTVYVYVDRDDTADSIYNKIRQTGHVNKFTGFQWMAKYRKFDQNIHTGRYAIRPNENVYHVFSRFFRGYQEPMNLTIGSIRTLDRLARSIGKQLMIDSAEIARQLFDSAFQTEMGYTPVTMPCLFIPETYQVYWDMSVDDFFKRMQTEHKRFWNDERLAQATAIGMTPEEVCTLASIVEEETNNNEEKPMVAGLYINRLHTGMPLQADPTIKFALQDFGLRRITNEHLKVNSPYNTYINSGLPPGPIRIPSKKGLDSVLNYTKHNYIYMCAKEDFSGTHNFASNYADHMANARKYWKALNERKEGHHHHHH | not soluble
MSMATVDPWMQNLPQITNQDFFHSSGIECWNRQFPDHRVVEENGPIKTKDALMILYFITVRNIRKNRNTITRIRDALKSPVSIFRRSPKLSLQEDVLSWQKSPESLAASEYGSKLFVQFLKQQTSADDVDFWLACAKHRWTEMTRDGYEYAAYMIYNTYVFWTCERKIDLLDKFCFVDDDGGTPRDVFITAQAYVGTKFPKDSHKKFLQDPIYLNFLHSVSSAANQQKK | not soluble
MSMKGKETMSNEKIVVGKFGATYGIRGWLKVFSYTDNAESIFDYSPWYINQKGKWVEYKVESWKRHNKGMVAKLEGMDVREDAHLMTNFEIAIDPAVLPELSEDEFYWRELFGMHVVTTKGYDLGVVTDMLETGSNDVLVVKANLKDAFGQKERLIPFLEEQVIIKVDREAQRIEVDWDPGFLEHHHHHH | soluble
MSNDNEVPGSMVIVAQGPDDQYAYEVPPIDSAAVAGNMFGDLIQREIYLQKNIYYPVRSIFEQGTKEKKEINKKVSDQVDGLLKQITQGKREATRQERVDVMSAVLHKMESDLEGYKKTFTKGPFIDYEKQSSLSIYEAWVKIWEKNSWEERKKYPFQQLVRDELERAVAYYKQDSLSEAVKVLRQELNKQKALKEKED | soluble
MSNFEKRNRKMAEKNIRKPKQERSIEKRNKILQVAKDLFSDKTYFNVTTNEIAKKADVSVGTLYAYFASKEDILTALLKRYNDFFLTTIFADINSQDSLDRFKKNPKEWLNVLINQLLAAEDKIFHAQIEMLAYAIPQAKALLEEHNNNLKNLTYKCLLYYSDQAANPSFKTLSLVVFDFISALVDELLYHEHTQEEAHQIKKTGIDSLDLIIKSYL | soluble
MSNGQLVSQVTVGHDKPLDREKVCPMLLRVFVANNRHNPMSEYNSRNGGSVPPSELQMHTWMDCSLRELTSLIKEVNPDARRKGTTFDFAIVQADRGSPRYILRDVGNTTNGERGIDDNKTLQQCKFEVGDFVDVAISLPSQGRRFNNREQGDRFDHRQRQRSPIR | not soluble
MSNILFKPTHLPISKPFHALLANILSEHQAKSEVQATSKEVVMNFRDSSYSAEDGGFHPVEIALSQSSDGQWCIEYITDFAYVGNHFPELERCLDFDFQRGDFFTAYHGWNPIVGNRDARELYQLWESNFLAYVATEAFDDISLTSAP | soluble
MSNIPKELKYTKSHEWVKIDGDEVTVGITAHAQSLLGDLVYVELPEIGKEFAAGDDSCVVESVKAASDVYAPVDGEVIEINEALVDDPSRVNHTPYKDGWLFKLKISDESQLADLLTADAYAKTLED | not soluble
MSNLIELALRNAALDRTKLLSQVQKIEFLNGYDPRFVEGLISLEMIGDIDEYVASLMYVKMTDKYTQEEKEQLTDTILTINNDRLISCQYRFPQLYQKLMQDQFLSTFFSSSHLLPNIAPGTNNQSYETVSTNNKMKMESAKLYGHYEYYQCVVALITQIDGSRYFYHLNPNRIFGDYMGSAPLKLSGSELKDVKDITFILHPRSMVDYREFQRLQERNIVFKTVMLPVGAKSVSLSYDTDKDVLTVNNLEAGQTVTYNNLLQTPQYNRYQYTPEQYFMTQLYRGQTWAEALGEALDKYIVTRQEGATWWDLKPLFFNRKTTKNNMIAAARIKKEIEAGATSFDFTGVSRNGLLNQLLTTAVDYQLEYQRGLQNGVLSAEDLTTSAALR | not soluble
MSNLNNLTSKILNDAEEKKKYILADAEAQKDKIISKKTNRAEADKEEIITKANIEAEVKKARIISNAKLSVRNDMLRAKQDVISKVFNEAIEKLQNLSNGDYKYYVISTLDSLELEGTEVIIINEKDKDIFSNEFLEALNKELESKGKKGSITLNMEGKFNGGFILDRNGIQINNTFEALINSLRGELEFEVNKVLFDLEHHHHHH | soluble
MSNNDCISTDKVDLDKKQIKKFLKQINISQLTKMIQFIDNKLLSDWDFNCLTYFDESEYPFFDINLSLICTIDHNIPINIIINFLCFVEKQYNNVPYHNTIHATMVTQKFFCLAKKLGIYDDLEYKIKLVMFISGICHDIGHPGYNNLFFVNSLHPLSIIYNDISVLENYHASITFKILQLNQCNILKNFSEKDFRMMRSYIIELILSTDMKHHFEIISKFRIRRENEDFDYIKNSDDLLILTKMIIKSADISHGSVSWSEHYCWCQRVLSEFYTQGDEELKNKMPLSPLCDRTKHNEVCKSQITFLKFVVMPLFEELSHIDNNKFIKSFCLKRLNSNCIMWDTLMKEEKTIE | soluble
MSNPVTITEAAALHIKDMMKEHEEENAFLRVGVKGGGCSGLSYGMGFEHEKSESDSVFDQHGITVLVDKESLDIMNGTVIDYKQSMLGGGFTIDNPNAIASCGCGSSFRTATNAGKPEEC | soluble
MSNRNLRSSTNSDLAEGQHQTPSSDSSGHGEDQPQASPGPNKKSHTPKKNISKGAVLHEKPMTVMVLTATEPFNYKEGKENMFHATVATESQYYRVKVFNMDLKEKFTENKFITISKYFNSSGILEINETATVSEAAPNQMFEVPKNIIRSAKETLKISKIKELDSGTLIYGVFAVEKKKVNDKSITFKIKDNEDNIKVVWDKEQHNINYEKGDKLQLFSFHLRKGNGKPILHSGNHSFIKGEKLLKESFEGDGYHKGPKQVVALKATKLFTYDSIKSKKMFHATVATDTEFFRVMVFEENLEKKFIPGNTIALSDYFGMYGSLAIHEYSSVSEVKSQNKEDSSSSDERPIEHLKICDLHLQTKERLVDGEFKVYRKSSGNNCICYGIWDDTGAMKVVVSGQLTSVNCEIGNTIRLVCFELTSNADEWFLRATRYSYMEVIMPEK | soluble
MSNSAQRDARNSRDESARASDTDRIQIAQLLAYAAEQGRLQLTDYEDRLARAYAATTYQELDRLRADLPGAAIGPRRGGECNPAPSTLLLALLGGFERRGRWNVPKKLTTFTLWGSGVLDLRYADFTSTEVDIRAYSIMGAQTILLPPEVNVEIHGHRVMGGFDRKVVGEGTRGVPTVRIRGFSLWGDVGIKRKPRKPRK | not soluble
MSNTSSSHNTAFTPSSPAERYAQALASGQFMPDEAQAQAVQELERVWQELLSRYKASKKAFRRFRRQTSPKGVYMWGGVGRGKTWLMDQFYDSIPFRRKTRMHFHHFMQHVHRELNKLSGQRNPLDLVADQIYKDAVIICFDEFFVSNVTDAMILSDLFQKLFNRGVTLVATSNIAPDGLYKNGIHRDRFLPTIELVQKNCTILNVDAGVDYRLRVLKQAQLFKHPLTDDAKIWMSQRFSAITRSQIVSQQPITINNRVVETLGHTEDVLWCEFSELCLKPRSPADFIEIANIYNTVLVSNVPHLTDYLSEGTRRFIYLVDEFYDRGVKLLLTSQDSIIEIYEGEKLAFEIERTRSRLLEMQSDEYLHSEHRHINSENNSLEHHHHHH | not soluble
MSPDQKHRYKLYYVNMRGRAEPIRLVFHFLGVDFEDYRMDKGDFTGAMKDKAPMKQLPFIEIDGGKTTLCQTVSICRYLAKSIQPDRWFGGATKTDSAKVDMMADGFADLFQLAAMAKYAPDPIKDSMMGTYKESIGPKLENMQDLLKKSKGEYFVGKSIHWCDVYILGVLQALDESDDGVFDNLPELREYYLRMRNLPELKEYIDANWPETKYKE | not soluble
MSPEKQPLPAALVGSHVRAAAGTPADLATDRKFWTGLSRAVQERIADDWERTREAYGAARQQHYFSAEFLMGRALLNNLTNLGLVDEAAAATRELGHELTDILEIENDAALGNGGLGRLAACFLDSAVTQDYPVTGYGLLYRFGLFRQSFNEGFQVEKPDPWREEEYPFTIRRASDQLVVCFDDMKTRAIPYDMPITGYGTHNVGTLRLWKAEPWEEFDYDAFNAQRFTDAIIERERVSDICRVLYPNDTTYEGKKLRVRQQYFFTSASLQAMIQDHLAHHKDLSNFAEFHSVQLNDTHPVLAIPELMRLLMDEHDMGWEESWAIVSKTFAYTNHTVLTEALEQWDEQIFQQLFWRVWEIIAEIDRRFRLERAADGLDEETINRMAPIQHGTVHMAWIACYAAYSINGVAALHTEIIKAETLADWYALWPEKFNNKTNGVTPRRWLRMINPGLSDLLTRLSGSDDWVTDLDELKKLRSYADDKSVLEELRAIKAANKQDFAEWILERQGIEIDPESIFDVQIKRLHEYKRQLMNALYVLDLYFRIKEDGLTDIPARTVIFGAKAAPGYVRAKAIIKLINSIADLVNNDPEVSPLLKVVFVENYNVSPAEHILPASDVSEQISTAGKEASGTSNMKFMMNGALTLGTMDGANVEIVDSVGEENAYIFGARVEELPALRESYKPYELYETVPGLKRALDALDNGTLNDNNSGLFYDLKHSLIHGYGKDASDTYYVLGDFADYRETRDRMAADYASDPLGWARMAWINICESGRFSSDRTIRDYATEIWKLEPTPAVKK | soluble
MSPEKYLQDWQTSQTIAESISPLIGKLYRQKGIEVVLFGKTLINATTIDILKTHRVARRYTGSPLSLEHTMPIIQALCEMSISSCRVDVGQLATKYWNEHEDTAALNDFLQTALQGARDADSS | not soluble
MSPETMFFQDEDSRNLATNFIANYLKLWDANRSELMILYQNESQFSMQVDSSHPHLIESGNSGYSGSTDFGYYLNNSRNLTRVSSIKARMAKLSIGQEQIYKSFQQLPKTRHDIIATPELFSMEVYKFPTLNGIMITLHGSFDEVAQPEVDGSASSAPSGPRGGSRYHSGPKHKRIPLSKKSFDRTFVVIPGPNGSMIVASDTLLIRPYTSDFPWKVQK | soluble
MSPGERFLDWLKRLQGQKAWTAARAAFRRSLAFPPGAYPRAMPYVEPFLAKGDWRQEEREAHYLVAALYALKDGDHQVGRTLARALWEKAQGSASVEKRFLALLEADRDQIAFRLRQAVALVEGGIDFARLLDDLLRWFSPERHVQARWAREYYGAGASEEEKKKEVEA | soluble
MSPKFAADLKKTIYDNMTFDPKHYGGRWNILQDHGTSHLSIVDSERNAVSMTTTVNAYFGSLILSPSTGILLNNEMDDFSMPANTSANSPPPAPANFVRPLKRPLSSMTPTIILKDGNLKAAVGASGGSMIPAGTMEVLLNHFVKNMDPLSSVMAPRVYHQLIPNVVQYENWTTVTGDHFELDAATRADLRRKGHVLEPLAGGTISQLVVDDVERHGGLTAVSDPRKGGFPAGY | soluble
MSPLKPLYKLYEWYISRNLRRDRMPRHVAIIMDGNRRYSKLQGSMNPIEGHKKGIETLEKVLDWCVDLGIEIVTAYAFSTENFKRPEKEVKGLMKLFRENFEAIASNEKIHKNRVRVRAVGKLELLPEDVRRAIEIAEKSTEQYSDRLVNIAIGYDGRQEIVDATRKIAEDVKAGLIDPEDIDEDMINRNLYTAGLEDPHLIIRTSGEERLSGFLLWQSSYSELYFCDSLWPELRKVDFLRAIRSYQQRERRFGV | soluble
